Experimental findings from patent US20250027068 are described below.

Numbering of substitutions follows the chain as printed.

The chains are these.
B1: PRT-328 (protein)
chain: MTITSVWTKGVTPPTPEDFRKNNEDVLHAPYVANQGWYDITKTFDGKDNLLCGAATAGNMLHWWFDQNKEEIERYLKKHPEKQKIIFNNQELFDVKAAIDTKDSQTNSKLFNYFRDKAFPGLSARQLGVFPDLVLDMFINGYYLNLGKTQSTDVNRPYQDKDKRGGIFDAVFTRGVQTTLLTARHDLKNKGLNEISDLIKQELTEGKALALSHTYANVRINHVINLWGADFDAEGNLIAIYVTDSDANASIGMKKYFVGRNANGKVAISAKKIEGDNIGAQVLGLFTLSTGQDIWQKLS
B2: PRT-336 (protein)
chain: B1 chain with K21E, N112D, N236E, A249P
B3: PRT-335 (protein)
chain: B1 chain with K21E, N88G, N112D, N236E, A249P, I294Q
B4: PRT-334 (protein)
chain: B1 chain with K21E, N88G, N112D, N236E, A249P
B5: PRT-342 (protein)
chain: MTITSVWTKGVTPPTPEDFRENNEDVLHAPYLANQGWYDITKAFDGKDNLLCGAATAGNMLHWWFDQNKEEIERYLKKHPEKQKIIFGNQELFDVKAAIDTKDSQTNSKLFNYFRDKAFPNLSARQLGVMPDLVLDMFINGYYLNLGKTQSTDVNRPYQDKDKRGGIFDAVFTRGDQTTLLTARHDLKNKGLNEISDLIKQELTEGKALALSHTYANVSINHVINLWGADFDAEGNLEAIYVTDSDANPSIGMKKYFVGRNAHGKVAISAKKIEGDNIGAQVLGLFTLSTGQDIWQKLS
B6: PRT-344 (protein)
chain: B5 chain with N112D, N236E, I294Q
B7: PRT-343 (protein)
chain: B5 chain with N112D, N236E
B8: PRT-366 (protein)
chain: MSQTEDSESLQRLRDIEDFQAEKEKQNVVYTKWLDGVDVKDHDFRKIVDGNSAYYATPLLNGRGFYDINKDFNRDNDKCAAAVAANMFHYWLDRNRDNVDRFLRQNPEKHGIIELPDGQLKLSDFLNTYESDDGYRDKSKLFDFISNNFNGPVWTDKLLDNYINGYAYNYKYGRTIEDSTKNTSKINFFKEVFNEKILTNNHSIRNQNEFSVLLSEALYTGKAIGLSYGPAGLRHSLGHIISVWGADLDADGNVVAIYVTDSDDKKLTIGDERVGLKRYKISTDDEGRLRLTAYEETHNTGGQVRGLWTLDTGKQAWADYFDKTEQTGTDQAEQ
B9: PRT-350 (protein)
chain: MSQTEDSESLQRLRDIEDFQAEKKDQNVVYTKWLDGVDVKDHDFRKIVDGNSAYYATPLLNGRGWYDINKDFNRDSDKCAAAVAANMFHYWLDINRDNVDRFLRQNPEKHGIIELPDGQLKLSDFLNTYESDHGYRDKSKLFDFISENFNGPVWTDKLLDNYINGYAYNYKYGRTIEDPTKNTSKINFFKEVFNEKILTNNHSIRNQNEFSVLLIEALYTGKAIGLSYGPAGLRHSLGHIISVWGADLDADGNVVAIYVTDSDDKKLTIGDERVGLKRYKISTDDENRLRLTAYEETHNTGGQVRGLWTLDTGKYAWADYFDKTEQTGTDQAEQ
B10: PRT-358 (protein)
chain: B9 chain with S52I, I94R, H133D, N287G, Y315Q
B11: PRT-367 (protein)
chain: B8 chain with F65W
B12: PRT-351 (protein)
chain: B9 chain with D25M, W65F, V304I
B13: PRT-359 (protein)
chain: B8 chain with E24K, K25D, S52I, F65L, N76S, N147E, S179P, F210L

The target in the data set is pooled human IgG (human IgG1,2,3 and 4).
As to B1, the Enzyme Activity Endpoint Assay (purified): Fab'2 was found to be 1000 ng/µL, the Enzyme Activity Endpoint Assay (purified): Fc was 455 ng/µL, the Enzyme Activity Endpoint Assay (purified): IgG was found to be 75 ng/µL and the Enzyme Activity Endpoint Assay (purified): scIgG came to 0 ng/µL.

For B2, the Enzyme Activity Endpoint Assay (purified): Fab'2 was 50 ng/µL, the Enzyme Activity Endpoint Assay (purified): Fc worked out at 264 ng/µL, the Enzyme Activity Endpoint Assay (purified): IgG came out at 370 ng/µL and the Enzyme Activity Endpoint Assay (purified): scIgG turned out to be 965 ng/µL.

Protein B3 showed an Enzyme Activity Endpoint Assay (purified): Fab'2 of 38 ng/µL, an Enzyme Activity Endpoint Assay (purified): Fc of 154 ng/µL, an Enzyme Activity Endpoint Assay (purified): IgG of 74 ng/µL and an Enzyme Activity Endpoint Assay (purified): scIgG of 514 ng/µL.

Turning to B4, the Enzyme Activity Endpoint Assay (purified): Fab'2 came out at 59 ng/µL, the Enzyme Activity Endpoint Assay (purified): Fc worked out at 257 ng/µL, the Enzyme Activity Endpoint Assay (purified): IgG worked out at 154 ng/µL and the Enzyme Activity Endpoint Assay (purified): scIgG is 738 ng/µL.

Protein B5 had an Enzyme Activity Endpoint Assay (purified): Fab'2 of 15 ng/µL, an Enzyme Activity Endpoint Assay (purified): Fc of 209 ng/µL, an Enzyme Activity Endpoint Assay (purified): IgG of 206 ng/µL and an Enzyme Activity Endpoint Assay (purified): scIgG of 841 ng/µL.

B6: the Enzyme Activity Endpoint Assay (purified): Fab′2 came out at 562 ng/µL, the Enzyme Activity Endpoint Assay (purified): Fc came to 335 ng/µL, the Enzyme Activity Endpoint Assay (purified): IgG is 0 ng/µL and the Enzyme Activity Endpoint Assay (purified): scIgG is 218 ng/µL.

The protein B7 had an Enzyme Activity Endpoint Assay (purified): Fab'2 of 154 ng/µL, an Enzyme Activity Endpoint Assay (purified): Fc of 266 ng/µL, an Enzyme Activity Endpoint Assay (purified): IgG of 129 ng/µL and an Enzyme Activity Endpoint Assay (purified): scIgG of 682 ng/µL.

Consider B8, for which the Enzyme Activity Endpoint Assay (purified): Fab'2 was found to be 0 ng/µL, the Enzyme Activity Endpoint Assay (purified): Fc worked out at 122 ng/µL, the Enzyme Activity Endpoint Assay (purified): IgG is 777 ng/µL and the Enzyme Activity Endpoint Assay (purified): scIgG stood at 472 ng/µL.

Protein B9 showed an Enzyme Activity Endpoint Assay (purified): Fab'2 of 520 ng/µL, an Enzyme Activity Endpoint Assay (purified): Fc of 243 ng/µL, an Enzyme Activity Endpoint Assay (purified): IgG of 668 ng/µL and an Enzyme Activity Endpoint Assay (purified): scIgG of 200 ng/µL.

As for B10, the Enzyme Activity Endpoint Assay (purified): Fab'2 is 8 ng/µL, the Enzyme Activity Endpoint Assay (purified): Fc worked out at 90 ng/µL, the Enzyme Activity Endpoint Assay (purified): IgG is 86 ng/µL and the Enzyme Activity Endpoint Assay (purified): scIgG came to 375 ng/µL.

B11: the Enzyme Activity Endpoint Assay (purified): Fab'2 was found to be 351 ng/µL, the Enzyme Activity Endpoint Assay (purified): Fc is 361 ng/µL, the Enzyme Activity Endpoint Assay (purified): IgG was 100 ng/µL and the Enzyme Activity Endpoint Assay (purified): scIgG is 518 ng/µL.

On to B12, for which the Enzyme Activity Endpoint Assay (purified): Fab'2 came out at 37 ng/µL, the Enzyme Activity Endpoint Assay (purified): Fc came out at 191 ng/µL, the Enzyme Activity Endpoint Assay (purified): IgG was 86 ng/µL and the Enzyme Activity Endpoint Assay (purified): scIgG was determined as 638 ng/µL.

In turn, B13 had an Enzyme Activity Endpoint Assay (purified): Fab'2 of 260 ng/µL, an Enzyme Activity Endpoint Assay (purified): Fc of 340 ng/µL, an Enzyme Activity Endpoint Assay (purified): IgG of 202 ng/µL and an Enzyme Activity Endpoint Assay (purified): scIgG of 677 ng/µL.
